The source of these data is publication PMC3164098 (2011).

In this test the target is T1, 12/1 peptide.
T1 chain: MPRFMDYWEGLN-NH2
Nature of the test: ITC. On the technique in general: In ITC the heat of successive injections is recorded.

Ends that are not written are not given here.

B1: MDM2 18-125 (protein)
chain: QIPASEQETLVRPKPLLLKLLKSVGAQKDTYTMKEVLFYLGQYIMTKRLYDEKQQHIVYCSNDLLGDLFGVPSFSVKEHRKIYTMIYRNLVVVNQQESSDSGTSVSEN
A word on the Kd: it is the constant that tells how readily two partners part at equilibrium. Read a low Kd as higher affinity. B1 yielded a dissociation constant (Kd) of 240 nM.
